Assay results taken from patent US20260265354A1 (JIANGSU MABWELL HEALTH PHARMACEUTICAL R AND D, published 2026).
Residue numbers refer to the chain shown, from its start.

T1: Nectin-like-1 (UniProt Q8N126 25-330, limits assumed)
T1 construct: Bought recombinant protein; also called CADM3; IgSF4B
T1 sequence (looked up): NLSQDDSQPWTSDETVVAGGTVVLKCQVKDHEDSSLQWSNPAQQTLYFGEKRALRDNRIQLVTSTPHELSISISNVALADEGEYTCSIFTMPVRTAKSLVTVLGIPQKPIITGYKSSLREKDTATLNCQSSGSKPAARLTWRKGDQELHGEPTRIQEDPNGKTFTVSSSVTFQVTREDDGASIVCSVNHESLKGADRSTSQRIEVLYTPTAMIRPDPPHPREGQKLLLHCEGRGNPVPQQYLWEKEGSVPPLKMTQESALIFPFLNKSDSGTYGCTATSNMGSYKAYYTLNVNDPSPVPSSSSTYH

T2: Nectin-like-5 (UniProt P15151 21-343)
T2 construct: Bought recombinant protein; also called CD155; PVR
T2 sequence (looked up): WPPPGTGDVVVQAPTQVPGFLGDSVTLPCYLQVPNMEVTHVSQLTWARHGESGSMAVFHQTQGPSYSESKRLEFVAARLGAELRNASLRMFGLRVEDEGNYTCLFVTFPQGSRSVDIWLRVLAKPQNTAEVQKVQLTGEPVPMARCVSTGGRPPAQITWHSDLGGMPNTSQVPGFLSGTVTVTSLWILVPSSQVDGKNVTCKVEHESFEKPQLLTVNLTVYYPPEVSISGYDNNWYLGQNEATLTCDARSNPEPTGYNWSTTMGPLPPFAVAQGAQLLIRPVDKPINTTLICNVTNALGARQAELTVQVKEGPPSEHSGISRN

T3: Nectin-like-4 (UniProt Q8NFZ8 21-324, limits assumed)
T3 construct: Bought recombinant protein; also called CADM4; IgSF4C
T3 sequence (looked up): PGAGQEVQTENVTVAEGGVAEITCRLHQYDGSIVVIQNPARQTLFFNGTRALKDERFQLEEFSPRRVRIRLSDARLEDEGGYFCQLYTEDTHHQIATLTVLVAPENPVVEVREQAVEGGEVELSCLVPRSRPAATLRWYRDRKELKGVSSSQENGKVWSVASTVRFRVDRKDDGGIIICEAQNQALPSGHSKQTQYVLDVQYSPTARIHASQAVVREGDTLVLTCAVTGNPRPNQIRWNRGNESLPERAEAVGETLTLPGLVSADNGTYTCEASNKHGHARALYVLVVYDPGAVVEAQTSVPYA

T4: recombinant human Nectin-4 protein (human, UniProt Q96NY8 32-349)
T4 construct: Prepared in-house (Jiangsu Mabwell) by transient transfection of CHO cells; also called PVRL-4; PRR-4
T4 sequence: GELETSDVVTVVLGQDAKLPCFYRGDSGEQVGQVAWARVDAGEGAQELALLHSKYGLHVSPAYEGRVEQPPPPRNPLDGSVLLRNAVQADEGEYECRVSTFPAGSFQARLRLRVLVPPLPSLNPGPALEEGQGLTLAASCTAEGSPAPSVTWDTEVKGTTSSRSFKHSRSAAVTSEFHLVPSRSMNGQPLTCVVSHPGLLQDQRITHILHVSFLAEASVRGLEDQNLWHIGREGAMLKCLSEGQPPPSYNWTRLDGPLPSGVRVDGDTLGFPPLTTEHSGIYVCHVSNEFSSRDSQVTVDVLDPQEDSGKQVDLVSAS

T5: Nectin-like-3 (UniProt Q8N3J6 25-367, limits assumed)
T5 construct: Bought recombinant protein; also called CADM2; IgSF4D
T5 sequence (looked up): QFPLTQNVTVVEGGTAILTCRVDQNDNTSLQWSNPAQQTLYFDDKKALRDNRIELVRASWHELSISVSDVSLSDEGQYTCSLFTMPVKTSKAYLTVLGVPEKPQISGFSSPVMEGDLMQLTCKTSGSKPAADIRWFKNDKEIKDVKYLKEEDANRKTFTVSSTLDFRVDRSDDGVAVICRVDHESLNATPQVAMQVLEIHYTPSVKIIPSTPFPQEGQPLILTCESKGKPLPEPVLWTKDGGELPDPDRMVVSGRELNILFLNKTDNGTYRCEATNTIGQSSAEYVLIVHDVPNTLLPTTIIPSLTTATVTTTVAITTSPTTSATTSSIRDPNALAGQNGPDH

T6: Nectin-like-2 (UniProt Q9BY67 45-374, limits assumed)
T6 construct: Bought recombinant protein; also called CADM1; IgSF4
T6 sequence (looked up): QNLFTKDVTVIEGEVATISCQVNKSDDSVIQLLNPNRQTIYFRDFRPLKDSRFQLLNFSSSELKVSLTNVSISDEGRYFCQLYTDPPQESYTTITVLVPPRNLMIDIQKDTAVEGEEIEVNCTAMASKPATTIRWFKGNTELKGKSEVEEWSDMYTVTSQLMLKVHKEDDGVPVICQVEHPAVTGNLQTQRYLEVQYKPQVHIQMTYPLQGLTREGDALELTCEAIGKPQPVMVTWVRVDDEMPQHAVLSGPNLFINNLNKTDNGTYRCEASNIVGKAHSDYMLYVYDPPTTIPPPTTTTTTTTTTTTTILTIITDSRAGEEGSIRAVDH

B1: Antibody MM11 (antibody, mouse IgG1, kappa, V domains shown)
VH: DVQLQESGPGLVKPSQSLSLTCSVTGYSITSNFYWNWIRQFPGNRLEWMGYISYDGSNNYNPSLKNRISISRDTSKNQFFLKLNSVTTEDTATYYCVRADYWGQGTLVTVSA
VL: DTVMTQTPLSLPVSLGDQASISCRSSQSLESSDGHAYLNWYLQKPGQSPQLLIYRVSNRFSGVLHRFSGSGSGTDFTLKISRVEAEDLGVYFCLQFTHVPFTFGSGTKLEIKR
notes: Mouse monoclonal antibody from hybridoma; also called Nectin-4 mouse monoclonal antibody MM11; mouse antibody MM11
B2: Antibody R012 (antibody, V domains shown)
VH: SKSVEESGGRLVTPGTPLTLTCTVSGFSLSTYAMSWVRQAPGKGLEYIGIISGRGTTYYASWLKGRFTISKTSTTVDLKITSPTTEDTATYFCARDAGISDVYTGYFNLWGQGTLVTVSS
VL: QPVLAQLPSASAALGASAKLTCTLSSAHRTYTIAWYQQQQGEAPRYLMMLKSDGSYTKGTGVPDRFSGSSSGADRYLIISSVQAADEADYYCGADDSGGYVFGGGTQLTVTG
notes: Rabbit monoclonal antibody from phage display; also called Nectin-4 rabbit monoclonal antibody R012; rabbit antibody R012
B3: Antibody R036 (antibody, V domains shown)
VH: SQSVEESGGRLVTPGTPLTLTCTVSGFSLSSYAMSWVRQAPGKGLEYIGIIGGRGTTYYAIWAKGRFTISKTSTTVDLKITSPTTEDTATYFCARDAGTTYVGTTYVATGYFNLWGQGTLVTVSS
VL: B2 VL with A5T, L7P, R29K, M49I, K58R, A85D
notes: Rabbit monoclonal antibody from phage display; also called Nectin-4 rabbit monoclonal antibody R036; rabbit antibody R036

These binders were tested against T1, Nectin-like-1 (assay: ELISA, coated antigen, antibody at 10000 ng/ml).
Experimental: (§1) Coating: Nectin-1, Nectin-2, Nectin-3, Nectin-4, Nectin-like-1, Nectin-like-2, Nectin-like-3, Nectin-like-4, and Nectin-like-5 were diluted to 5 μg/ml in coating buffer (carbonate buffer, pH 9.6) respectively. A 96-well plate was coat with 100 μl per well and incubated overnight at 2-8° C.;
(§2) Sample loading: The plate was taken out, patted dry, and washed twice with 200 μl/well of PBST, then patted dry. The Nectin-4 antibodies prepared in Example 1 (antibody MM11, antibody R012, and antibody R036) were diluted with 1% BSA/PBST to concentrations of 10 μg/ml, 1 μg/ml, 100 ng/ml, and 10 ng/ml, respectively. 1% BSA/PBST solution for dilution was set as a blank control. 100 μl per well was added to the 96-well plate, and incubated at room temperature for 2 hours;
(§3) Reaction termination and plate reading: 100 μl/well of 1 mol/L H3PO4 was added to terminate the reaction and the plated was read. The absorbances of wells in the plate at 450 nm with 650 nm as reference wavelength were read and recorded as OD_{450 nm-650 nm}.
In the case of B1, the OD detection value is reported as 0.012 OD450 nm-650 nm. For B2, the OD detection value was 0.009 OD450 nm-650 nm. B3 was tested, and the OD detection value was 0.008 OD450 nm-650 nm.

These binders were tested against T2, Nectin-like-5 (assay: ELISA, coated antigen, antibody at 10000 ng/ml).
Experimental: as §1, §2, §3
B1 was tested, and the OD detection value was 0.008 OD450 nm-650 nm. Binder B2 has an OD detection value of 0.008 OD450 nm-650 nm. For B3, the OD detection value was 0.009 OD450 nm-650 nm.

These binders were tested against T3, Nectin-like-4 (assay: ELISA, coated antigen, antibody at 100 ng/ml).
Experimental: as §1, §2, §3
In the case of B1, the OD detection value is reported as 0.007 OD450 nm-650 nm. Binder B2 has an OD detection value of 0.008 OD450 nm-650 nm. B3 showed an OD detection value of 0.007 OD450 nm-650 nm.

The binders below were run against T4, recombinant human Nectin-4 protein (assay: ELISA, coated antigen, antibody at 100 ng/ml).
Experimental: as §1, §2, §3
Work on B1 yielded an OD detection value of 1.64 OD450 nm-650 nm. B2 showed an OD detection value of 1.44 OD450 nm-650 nm. Work on B3 yielded an OD detection value of 1.48 OD450 nm-650 nm.

These binders were tested against T5, Nectin-like-3 (assay: ELISA, coated antigen, antibody at 100 ng/ml).
Experimental: as §1, §2, §3
In the case of B1, the OD detection value is reported as 0.031 OD450 nm-650 nm. For B2, the OD detection value was 0.008 OD450 nm-650 nm. B3 showed an OD detection value of 0.007 OD450 nm-650 nm.

What follows are binders tested against T6, Nectin-like-2 (assay: ELISA, coated antigen, antibody at 100 ng/ml).
Experimental: as §1, §2, §3
For B1, the OD detection value was 0.007 OD450 nm-650 nm. B2 was tested, and the OD detection value was 0.008 OD450 nm-650 nm. Binder B3 has an OD detection value of 0.007 OD450 nm-650 nm.
